# Experimental data from the nanobody polyreactivity screen of Harvey et al. (2022).
# Assay: yeast display, Sf9 membrane polyspecificity reagent, FACS + sequencing; frameworks hold sequencing errors
# Outline: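 Galactose-induced (36–48 hours) yeast carrying a synthetic nanobody display library were exposed to 10% biotinylated, detergent-solubilized Sf9 membrane reagent at 4 °C for 1 hour. FACS followed streptavidin microbead enrichment, using low and high (top ~1%) gates for expression (anti-HA) and reagent binding (streptavidin). Colony PCR, MiSeq 2 × 250 sequencing and CDR-length filtering followed. Labels for polyreactivity reflect the gate of origin.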
row,Sequence,polyreactivity (PSR sort gate)
1,QVQLEESGGGLVQAGGSLRLSCAASGRIFYTYVMGWYRQAPEKERELVAAITGGGSKYYAYSVKGRFTISRDNAKNTVYLQMNSLKPEDTAVSYCAKRSYGDRDERYDSWGQGTQVTVSS,low polyreactivity
2,QVQLEESGGGLVQAGGSLRLSCAASGRILVKNTMGWYRQAPGKERELVAAITSGGNTYYADSVKGRFTISRDNAKNTVYLQMNSLKPEDTAVYYCNKVSNRSGYYWGQGTQVTVSS,high polyreactivity
3,QVQLEESGGGLVQAGGSLRLSCAASGRTFDRYAMGWYRQAPGKERELVAAITWSGGRTYYADSVKGRFTISRVNAKNTVYLQMNSLKPEDTAVYYCAADNSYRGYHSPYDYWGQGTQVTVSS,low polyreactivity
4,QVQLEESGGGLVQAGGSLRLSCAASGRTFGWNGMGWYRQAPGKERELVAVISSGGSTKYADSVKGRFTISRDNAKNTVYLQMNSLKPEDTALYYCAKDWVRSGRRNMDYWGQGTQVTFSS,low polyreactivity
5,QVQLEESGGGLVQAGGSLRLSCAASGRTFNRYVMGWYRQAPGKERELVAAITWRGGSTYYADSVKGRFTISRDNAKTSVYLQMNSLKPEDTAVYYCAARYSGGYSVDAFDYWGQGTQVTVSS,high polyreactivity
6,QVQLEESGGGLVQAGGSLRLSCAASGRTFSRNAMGWYIQAPGKERELVAAISQRGVSTYYADSVKGRFTISRDNAMNTVYLQMNSLKPEDTAVYYCNTRGTYRYDYWGQGTQVTVSS,low polyreactivity
7,QVQLEESGGGLVQAGGSLRLSCAASGRTFVLNVMGWYRQAPGKERELVATISGVGSTNYADSVKGRFTISRDNAKNTVYLQMNSLKPEDTAVYYCAKDPHVGRWWDLYSPYYSWGQGTQVTVSS,low polyreactivity
8,QVQLEESGGGLVQAGGSLRLSCAASGRTFVPYAMGWYRQAPGKERELVAAINSGGSTYYADSVKGRFTISRDNAKNTVYLQMNSLKPEDTAVYYCAAEYWNSRFSYAYGYWGQGTQVTVSS,high polyreactivity
9,QVQLEESGGGLVQAGGSLRLSCAASGRTFVRYAMGWYRQATGNERELVAAFSLRGGRTYYADSVKGRFTISRDNAKNTVYLQMNSLKPEDTAVYYCNSRYYIQREYDYWGQGNQVTVSS,high polyreactivity
10,QVQLEESGGGLVQAGGSLRLSCAASGRTFYPYAMGWYRQAPGKEREFVARITWSGGRTYYADSVKGRFTISRDNAKNTVYLQMNSLKPEDTAVYYCAARGHDAVIATRYDYWGQGTQVTVSS,high polyreactivity
11,QVQLEESGGGLVQAGGSLRLSCAASGRTIQDNAMGWYRQAHGKERELVAAIRDNGGSTYYADSVKGRFTISRDNAKNTVFLQMNSLKPEDTAVYYCAADQGTGSYDYWGQGTQVTVSS,low polyreactivity
12,QVQLEESGGGLVQAGGSLRLSCAASGRTSYSNAMGSYRQAPGQERELVAGITYRGGSTYYADSVKGRFTISRDNAKNTVYLQMNSLKPEDTAVYDCAVKYSWQSRFNYWGQGTQVTVSS,high polyreactivity
13,QVQLEESGGGLVQAGGSLRLSCAASGSIFEYYAMGWYRPAPGKERELVAAISSGGPTYYADSVKGRFTISRDNAKNTVYLQMNSLKPEDTAVYYCNADLWYPDYAYWGQGTQLTVSS,low polyreactivity
14,QVQLEESGGGLVQAGGSLRLSCAASGSIFFWYAMGWSRQAPGKERELVAAISSSGSTNYADSVKGRFTISRDNAKNTVYLQMNSLKPEDTAVYYCATRKYVYYPVQYEFWGQGTQVTVSS,high polyreactivity
15,QVQLEESGGGLVQAGGSLRLSCAASGSIFGLYAMGWYRQAPGKERELVAAINQSGGSTSYADSVKGRFTISRDNAKNTVYLQMNSLKPEDTAVYYCNRVRLNTEGFDYWGQGTQVTVSS,low polyreactivity
16,QVQLEESGGGLVQAGGSLRLSCAASGSIFGYNAMGWYRQAPGKERELVAAINVDGGRTYYADSVKGRFTISRDNAKNTVYLQMNSLTPEDTAVFYCAAAYRLQVGRREYWGQGTQVTVSS,high polyreactivity
17,QVQLEESGGGLVQAGGSLRLSCAASGSIFGYYAMGWYRKATGKEREFVADINSRDGGTYYADSVKGRFTISRDNAKNTVYLQMNSLKPEDTAVYYCAAPYYAAWVAVAIEYDYWGQGTQVTVSS,low polyreactivity
18,QVQLEESGGGLVQAGGSLRLSCAASGSIFRRNVMGWYRQAPGKERELVADINYSGGSTFYADSVKGRFTISRDNAKNTVYLQMNSLKPEDTAVYYCKSSPYREKHGYWGQGTQVTVSS,low polyreactivity
19,QVQLEESGGGLVQAGGSLRLSCAASGSIFRWNAMGWSRQAPGKERELVAAISSGTSTNYADSVKGRFTISRDNAKNTVYVQMNSQKPEDTAVYYCAARGRKNQRRYGYWGQGTQVTVSS,low polyreactivity
20,QVQLEESGGGLVQAGGSLRLSCAASGSIFRYYAMGWYRQAPGKERELVAVITRGGSTYYADSVKGRFTISRDNAKNTVYLQMNSLKPEDTAVYYCAADYWPAGLDRGYWGQGTQVTVSS,low polyreactivity
21,QVQLEESGGGLVQAGGSLRLSCAASGSIFVGYAMGWYRQAPGKEREFVAAINYRGGSTFYADSVKGRFTISRDNAKNTVYLQMNSLKPEDTAVYYCAARYSGNRGVPKGYRYNYWGQGTQVTVSS,low polyreactivity

row,Sequence,polyreactivity (PSR sort gate)
1,QVQLEESGGGLVQAGGSLRLSCAASGSIFVGYDMGWYRQAPGKVWELVAAITSSGVGSTYYADSVKGRFTISRDNAKNTVYLQMNSLKPEDTAVYYCAARTSLWWFLKYDYWGEGTQVTVSS,low polyreactivity
2,QVQLEESGGGLVQAGGSLRLSCAASGSIFYSNAMGWYRQAPGKERELVAAISVSGVSTYYADSVKGRFTISRDNAKNTVYLQMNSLKPEDTAVYYCAAQYVTRGLYLVAFFSYDYWGQGTQVTVSS,low polyreactivity
3,QVQLEESGGGLVQAGGSLRLSCAASGSILRVNVMVWYRQAPGKERELVAAITSGGRTYYADSVKGRFTISRDNAKNTVYLQMNSLIQEDTAVYYCAAKFFRNTYSYGMDYWGQGTQVTVSS,high polyreactivity
4,QVQLEESGGGLVQAGGSLRLSCAASGSISVRYTMGSYRQAPGKERELVAGISRSGGTTYADSVKGRFTISRDNGKNTVYLQMNSLKQEDTAVYYCAAELRRGSGRSYKGYYYWGQGTQVSVSS,low polyreactivity
5,QVQLEESGGGLVQAGGSLRLSCAASGSISYNNVMGWYRQAPGKERELVARIRSGGSTYYADSVKGRFTISRDNAKNTVYLLMNSLKQEDTAVYYCAARTKRQAGSYGYWGQGTQVTVSS,high polyreactivity
6,QVQLEESGGGLVQAGGSLRLSCAASGSTFCYYPMGWYRQAPGKEREFVAAISSSGGSTYYADYVKGRFTISRDNAKNTVYFQMNSLKPEDTAVYYCARVGFPGFYWGQGTEVTVSS,high polyreactivity
7,QVQLEESGGGLVQAGGSLRLSCAASGSTFEGYAMGWYRQAPGKERELVAVISSGSITKYADSVKGRFTISRDNAKNTVFLQINSLKPEDTAVYYCARKGGIIFASYLLGGYWGQGTQVTVSS,low polyreactivity
8,QVQLEESGGGLVQAGGSLRLSCAASGSTFEVYAMGWYRQAPGKERELVAVINVSDGSTYYADSVKGRFTISRDYAKNTVYLQMNSMKPEDTAVYYCADYLYNRPYQLTGYYDGYGYWGQGTQVTVSS,low polyreactivity
9,QVQLEESGGGLVQAGGSLRLSCAASGSTFFPYAMGWYRQAPGKERELVAGISSDGGTSYADSVKGRFTISRDTAKNTVYLQMNSLKPEDTAVYYCNARAVNVRDYINYDYWGQGTQVTVSS,low polyreactivity
10,QVQLEESGGGLVQAGGSLRLSCAASGSTFGNYAKGWYRQAPGKERELVAAITATGGRTYYADSVKGRFTISRDNAKNTVYLQMNSVKPEDTAVYYCAAGYRTGGDSGDYWGQGTQVTVSS,high polyreactivity
11,QVQLEESGGGLVQAGGSLRLSCAASGSTFGPNTMGRYRQAPGKERELVAAISRAGRTYYADSVKGRFTISRDNAKNTVYLQINSLKPEDTAVYYCNAGRSYHWRAGREYDYWGQGTQVTVSS,low polyreactivity
12,QVQLEESGGGLVQAGGSLRLSCAASGSTFGWYAMGWYRQAPGKERELVASITSGGRTNYADSVKGRFTISRDNAKNTVYLQMNCLKPEDTAVYYCAKRVYGSNSLYDYWGQGTQVTVTS,low polyreactivity
13,QVQLEESGGGLVQAGGSLRLSCAASGSTFGYYAMGWYRKAPGKERELVAAISRSGGSTYYADSVKGRFTISRDNAKNTVYLQMNSLKPEDTAVYYCAAKVYGAVYHYYYWGQGTQVTVSS,high polyreactivity
14,QVQLEESGGGLVQAGGSLRLSCAASGSTFGYYTMGWYRQAPGKERELVAAISWSGGSTYYADSVKGRFTISRDNAKNTVYLQMNSLKPEDTAVYYCAALGYTYKYYSYYWGQGTQVTVSS,high polyreactivity
15,QVQLEESGGGLVQAGGSLRLSCAASGSTFKLYTMGWYRQAPGKEREFVATITSGGRTNYADSVKGRFTISRDNAKNTVYLQMNSLKPEDTAVYYCAATWLRVKYRFKGYDYWGQGTQVTVSS,high polyreactivity
16,QVQLEESGGGLVQAGGSLRLSCAASGSTFRAYAMGWYRQAPGKERELVAAITSTTDTYYADSVKGRFTISRDNAKNTVYLQMNSLKPEDTAVYYCASVWVWTYDYWGQGTQVTVSS,low polyreactivity
17,QVQLEESGGGLVQAGGSLRLSCAASGSTFRDNALGWYRQAPGKETELVAGITRGGITNYADSVKGRFTISRDNAKNTVYLQMNSLIPEDTAVYYCAAEVTGTYYDYDYWGQGTQVTVSS,low polyreactivity
18,QVQLEESGGGLVQAGGSLRLSCAASGSTFTFNAMGWYRQAPGKERELVAVISSGGSTYYAESVKGRFTISRDNAKNTFYLQMNSLKPEDTAVYYCNKVYGYFGQYYLRYNYWGQGTQVTVSS,low polyreactivity
19,QVQLEESGGGLVQAGGSLRLSCAASGSTFTVNGMGWYRQAPGKERELVAAIDGGDGSTYYADSVKGRFTISRDNAKNTVYLQMNSLKPEDTAVYYCAADTPCFTQYGYWGQGTQVTVSS,low polyreactivity
20,QVQLEESGGGLVQAGGSLRLSCAASGSTFVEYAMGWYRQAPGKERELVAAITASGGSTYYADSVKGRFTISRDNAKNTVYLQMNSLKPEDTAVYYCAVTTRSRGFRDIDYWGQGTQVTVSS,low polyreactivity
